# Source: US20250121064A1 (CARSGEN LIFE SCIENCES, published 2025)
# Target: T1, human GPRC5D on cells (human, UniProt Q9NZD1 1-345)
# T1 construct: MM.1S and NCI-H929 cells express it endogenously; also called huGPRC5D; CHOK1-huGPRC5D
# Test: flow cytometry on CHOK1-huGPRC5D cells
# T1 sequence (Q9NZD1 whole entry): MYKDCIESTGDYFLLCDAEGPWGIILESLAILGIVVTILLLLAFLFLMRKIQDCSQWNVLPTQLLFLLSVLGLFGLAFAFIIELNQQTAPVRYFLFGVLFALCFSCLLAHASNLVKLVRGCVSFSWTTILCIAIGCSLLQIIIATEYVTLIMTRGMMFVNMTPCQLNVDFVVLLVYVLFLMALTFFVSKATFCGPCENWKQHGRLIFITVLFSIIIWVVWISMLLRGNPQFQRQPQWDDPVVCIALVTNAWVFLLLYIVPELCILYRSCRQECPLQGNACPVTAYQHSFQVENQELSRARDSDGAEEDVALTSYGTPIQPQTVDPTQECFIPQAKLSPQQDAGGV
row,EC50,Binder
1,1.69 nM,"hybridoma antibody AB1 (IgG2b-k) (antibody, V domains shown, Mouse hybridoma mIgG, IgG2b kappa) VH: EVQLQQSGPEVVKPGASMKISCKASGYSFTGYTMNWVKQSHGKNFEWIGLINPYNGGTSYNQKFKGKATLTVDKSSSTAYMELLSLTSEDSAVYYCTRGGFRAWFAFWGQGTLVTVSA VL: DIQMTQSPSSLSASLGERVSLTCRASQDIGSNLNWLQQEPDGTIKRLIYATSILDSGVPKRFSGSRSGSDYSLTISSLESEDFVDYYCLQYATFPNTFGGGTKLEIKR"
2,1.93 nM,"hybridoma antibody AB2 (IgG3-k) (antibody, V domains shown, Mouse hybridoma mIgG, IgG3 kappa) VH: VVKLVESGGGLVQPGGSLKLSCAASGFTFSNYGMSWVRQTPDTRLELVATINSNGGNTYYPDSVKGRFTISRDNAKNTLYLQMSSLKSEDTAIYYCVRAYSLTMDYWGQGTSVTVSS VL: DVVMTQTPLSLPVSLGDQASISCRSSQSLVHSNGNTYLHWYLQKPGQSPKLLIYKVSNRFSGVPDRFSGSGSGTDFTLKIIRVEAEDLGVYFCSQSTHVPPTFRAGTKLELKR"
